According to PMC11327110 (2024):
One block for each binder: values may come before it.

How the values were obtained:
[1] = biological target: T1, proteasome subunit α3 (PSMA4) (Homo sapiens (Human), UniProt P25789); assay: cryo-EM structure of co-purified complex; contact seen within the assembled multi-subunit intermediate; isolated pair only cited from earlier yeast two-hybrid
T1 chain: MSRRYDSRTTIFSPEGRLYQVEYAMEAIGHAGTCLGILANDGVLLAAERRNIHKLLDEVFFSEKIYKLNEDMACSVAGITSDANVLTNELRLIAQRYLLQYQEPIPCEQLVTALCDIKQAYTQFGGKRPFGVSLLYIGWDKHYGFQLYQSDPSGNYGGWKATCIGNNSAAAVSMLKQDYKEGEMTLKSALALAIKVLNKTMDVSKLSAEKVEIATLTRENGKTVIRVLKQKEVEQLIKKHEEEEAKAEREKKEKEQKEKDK

[2] = biological target: T2, proteasome subunit α2 (PSMA2) (Homo sapiens (Human), UniProt P25787); assay: cryo-EM structure of co-purified complex; contact seen only within the assembled multi-subunit intermediate (complete α-ring, POMP, β2); pair not tested in isolation
T2 chain: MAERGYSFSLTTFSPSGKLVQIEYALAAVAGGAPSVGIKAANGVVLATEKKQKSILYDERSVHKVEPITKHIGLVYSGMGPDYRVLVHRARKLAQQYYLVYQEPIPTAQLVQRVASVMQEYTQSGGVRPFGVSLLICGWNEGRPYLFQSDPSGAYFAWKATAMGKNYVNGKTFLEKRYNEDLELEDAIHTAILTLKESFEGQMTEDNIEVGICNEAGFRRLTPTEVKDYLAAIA

[3] = biological target: T3, proteasome subunit α4 (PSMA7) (Homo sapiens (Human), UniProt O14818); assay: as above
T3 chain: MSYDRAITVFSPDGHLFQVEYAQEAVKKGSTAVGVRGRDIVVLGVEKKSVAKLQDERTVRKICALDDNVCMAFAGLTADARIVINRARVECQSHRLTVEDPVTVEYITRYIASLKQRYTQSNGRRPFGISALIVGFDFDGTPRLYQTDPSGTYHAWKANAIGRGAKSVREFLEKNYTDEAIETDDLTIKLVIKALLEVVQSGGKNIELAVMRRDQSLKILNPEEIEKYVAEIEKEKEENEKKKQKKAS

[4] = biological target: T4, proteasome subunit α7 (PSMA3) (Homo sapiens (Human), UniProt P25788); assay: cryo-EM structure of co-purified complex; contact seen only within the assembled multi-subunit intermediate (PAC2 C-terminus in α6-α7 pocket); pair not tested in isolation
T4 chain: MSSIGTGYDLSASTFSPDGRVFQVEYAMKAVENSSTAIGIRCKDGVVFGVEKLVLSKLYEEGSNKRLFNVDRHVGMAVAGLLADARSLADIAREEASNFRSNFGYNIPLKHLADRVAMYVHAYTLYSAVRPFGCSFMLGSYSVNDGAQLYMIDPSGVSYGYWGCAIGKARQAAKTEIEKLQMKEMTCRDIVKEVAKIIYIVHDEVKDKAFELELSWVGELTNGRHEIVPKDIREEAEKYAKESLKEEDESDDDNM

[5] = biological target: T5, proteasome subunit α5 (PSMA5) (Homo sapiens (Human), UniProt P28066); assay: cryo-EM structure of co-purified complex; contact seen within the assembled multi-subunit intermediate (complete α-ring, POMP, β2); isolated pair only cited from earlier work
T5 chain: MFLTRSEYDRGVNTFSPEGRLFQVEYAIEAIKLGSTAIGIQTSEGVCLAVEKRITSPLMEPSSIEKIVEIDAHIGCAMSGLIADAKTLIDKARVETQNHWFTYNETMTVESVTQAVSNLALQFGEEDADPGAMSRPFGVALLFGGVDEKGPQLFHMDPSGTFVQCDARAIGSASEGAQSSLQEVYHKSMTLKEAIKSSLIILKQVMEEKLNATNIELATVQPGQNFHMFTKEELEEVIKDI

[6] = biological target: proteasome subunit α6 (PSMA1) (Homo sapiens (Human), UniProt P25786); assay: cryo-EM structure of co-purified complex; contact seen only within the assembled multi-subunit intermediate (HbYX motifs in α5-α6 and α6-α7 pockets); pair not tested in isolation
Chain of proteasome subunit α6 (PSMA1) (P25786 whole entry): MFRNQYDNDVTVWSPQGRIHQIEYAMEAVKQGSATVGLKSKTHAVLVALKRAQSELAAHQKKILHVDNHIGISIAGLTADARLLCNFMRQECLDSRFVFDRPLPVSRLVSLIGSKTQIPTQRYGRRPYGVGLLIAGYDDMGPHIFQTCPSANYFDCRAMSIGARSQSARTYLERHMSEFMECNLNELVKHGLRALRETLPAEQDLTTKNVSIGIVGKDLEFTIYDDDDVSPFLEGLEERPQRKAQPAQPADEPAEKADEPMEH

[7] = biological target: T1, proteasome subunit α3 (PSMA4); assay: cryo-EM structure of co-purified complex; contact seen only within structure 1 (complete α-ring, PAC1/PAC2, POMP, β2); pair not tested in isolation

- binding result [1]: binds
B1: proteasome maturation protein (POMP) (protein)
chain: MNARGLGSELKDSIPVTELSASGPFESHDLLRKGFSCVKNELLPSHPLELSEKNFQLNQDKMNFSTLRNIQGLFAPLKLQMEFKAVQQVQRLPFLSSSNLSLDVLRGNDETIGFEDILNDPSQSEVMGEPHLMVEYKLGLL

- binding result [2]: binds
- binding result [3]: binds
- binding result [4]: binds
- binding result [5]: binds
- binding result [6]: binds
B2: PAC1–PAC2 heterodimer (protein)
chain 1: MAATFFGEVVKAPCRAGTEDEEEEEEGRRETPEDREVRLQLARKREVRLLRRQTKTSLEVSLLEKYPCSKFIIAIGNNAVAFLSSFVMNSGVWEEVGCAKLWNEWCRTTDTTHLSSTEAFCVFYHLKSNPSVFLCQCSCYVAEDQQYQWLEKVFGSCPRKNMQITILTCRHVTDYKTSESTGSLPSPFLRALKTQNFKDSACCPLLEQPNIVHDLPAAVLSYCQVWKIPAILYLCYTDVMKLDLITVEAFKPILSTRSLKGLVKNIPQSTEILKKLMTTNEIQSNIYT
chain 2: MFVPCGESAPDLAGFTLLMPAVSVGNVGQLAMDLIISTLNMSKIGYFYTDCLVPMVGNNPYATTEGNSTELSINAEVYSLPSRKLVALQLRSIFIKYKSKPFCEKLLSWVKSSGCARVIVLSSSHSYQRNDLQLRSTPFRYLLTPSMQKSVQNKIKSLNWEEMEKSRCIPEIDDSEFCIRIPGGGITKTLYDESCSKEIQMAVLLKFVSEGDNIPDALGLVEYLNEWLQILKPLSDDPTVSASRWKIPSSWRLLFGSGLPPALF

- binding result [7]: binds
B3: PAC3–PAC4 heterodimer (protein)
chain 1: MEDTPLVISKQKTEVVCGVPTQVVCTAFSSHILVVVTQFGKMGTLVSLEPSSVASDVSKPVLTTKVLLGQDEPLIHVFAKNLVAFVSQEAGNRAVLLAVAVKDKSMEGLKALREVIRVCQVW
chain 2: MEGLVVAAGGDVSLHNFSARLWEQLVHFHVMRLTDSLFLWVGATPHLRNLAVAMCSRYDSIPVSTSLLGDTSDTTSTGLAQRLARKTNKQVFVSYNLQNTDSNFALLVENRIKEEMEAFPEKF
